Blank lines part the entries; values can stand above or below the molecule they belong to.
Assays:
Format in all cases: biochemical
[1] = ω-transaminase enzyme activity assay, reverse direction (6-aminohexanoate to adipate semialdehyde); details: cell free extract; 10 mM 6-aminohexanoate, 10 mM pyruvate; 25° C., 24 h; against empty vector control (FIG. 17)
Method: (§1) A nucleotide sequence encoding a His-tag was added to the genes from Chromobacterium violaceum, Pseudomonas aeruginosa, Pseudomonas syringae, Rhodobacter sphaeroides, and Vibrio fluvialis encoding the ω-transaminases of SEQ ID NOs: 7, 8, 9, 10 and 12, respectively (see FIG. 9) such that N-terminal HIS tagged w-transaminases could be produced. Each of the resulting modified genes was cloned into a pET21a expression vector under control of the T7 promoter and each expression vector was transformed into a BL21[DE3] E. coli host. The resulting recombinant E. coli strains were cultivated at 37° C. in a 250 mL shake flask culture containing 50 mL LB media and antibiotic selection pressure, with shaking at 230 rpm. Each culture was induced overnight at 16° C. using 1 mM IPTG.
(§2) The pellet from each induced shake flask culture was harvested via centrifugation. Each pellet was resuspended and lysed via sonication. The cell debris was separated from the supernatant via centrifugation and the cell free extract was used immediately in enzyme activity assays.
Enzyme activity assays in the reverse direction (i.e., 6-aminohexanoate to adipate semialdehyde) were performed in a buffer composed of a final concentration of 50 mM HEPES buffer (pH=7.5), 10 mM 6-aminohexanoate, 10 mM pyruvate and 100 μM pyridoxyl 5′ phosphate. Each enzyme activity assay reaction was initiated by adding cell free extract of the ω-transaminase gene product or the empty vector control to the assay buffer containing the 6-aminohexanoate and incubated at 25° C. for 24 h, with shaking at 250 rpm. The formation of L-alanine from pyruvate was quantified via RP-HPLC.

[2] = ω-transaminase enzyme activity assay, forward direction (adipate semialdehyde to 6-aminohexanoate); details: cell free extract; 10 mM adipate semialdehyde, 10 mM L-alanine; 25° C., 4 h; against empty vector control (FIG. 18)
Method: as §1, §2
Enzyme activity in the forward direction (i.e., adipate semialdehyde to 6-aminohexanoate) was confirmed for the transaminases of SEQ ID NO 7, SEQ ID NO 8, SEQ ID NO 9, SEQ ID NO 10 and SEQ ID NO 12. Enzyme activity assays were performed in a buffer composed of a final concentration of 50 mM HEPES buffer (pH=7.5), 10 mM adipate semialdehyde, 10 mM L-alanine and 100 μM pyridoxyl 5′ phosphate. Each enzyme activity assay reaction was initiated by adding a cell free extract of the ω-transaminase gene product or the empty vector control to the assay buffer containing the adipate semialdehyde and incubated at 25° C. for 4 h, with shaking at 250 rpm. The formation of pyruvate was quantified via RP-HPLC.

[3] = carboxylate reductase enzyme activity assay (adipate to adipate semialdehyde); details: purified enzyme enhanced by sfp gene product; 2 mM adipate; room temperature, 20 min; against empty vector control (FIG. 12)
Method: A sequence encoding a HIS-tag was added to the genes from Segniliparus rugosus and Segniliparus rotundus that encode the carboxylate reductases of SEQ ID NOs: 4 and 6, respectively (see FIG. 9), such that N-terminal HIS tagged carboxylate reductases could be produced. Each of the modified genes was cloned into a pET Duet expression vector along with a sfp gene encoding a HIS-tagged phosphopantetheine transferase from Bacillus subtilis, both under the T7 promoter. Each expression vector was transformed into a BL21[DE3] E. coli host and the resulting recombinant E. coli strains were cultivated at 37° C. in a 250 mL shake flask culture containing 50 mL LB media and antibiotic selection pressure, with shaking at 230 rpm. Each culture was induced overnight at 37° C. using an auto-induction media.
The pellet from each induced shake flask culture was harvested via centrifugation. Each pellet was resuspended and lysed via sonication, and the cell debris was separated from the supernatant via centrifugation. […]
Enzyme activity assays (i.e., from adipate to adipate semialdehyde) were performed in triplicate in a buffer composed of a final concentration of 50 mM HEPES buffer (pH=7.5), 2 mM adipate, 10 mM MgCl2, 1 mM ATP and 1 mM NADPH. […] The consumption of NADPH was monitored by absorbance at 340 nm.

- ω-transaminase activity: acceptance of 6-aminohexanoate as substrate (formation of L-alanine from pyruvate, RP-HPLC) [1]: accepted 6-aminohexanote as substrate
Molecule: SEQ ID NO 10: Rhodobacter sphaeroides ω-transaminase (Genbank Accession No. ABA81135.1)
- ω-transaminase activity: acceptance of adipate semialdehyde as substrate (formation of pyruvate, RP-HPLC) [2]: accepted adipate semialdehyde as substrate

B1: SEQ ID NO 4: Segniliparus rugosus carboxylate reductase (Genbank Accession No. EFV11917.1) (protein, listed as Segniliparus rugosus)
chain: MGDGEERAKRFFQRIGELSATDPQFAAAAPDPAVVEAVSDPSLSFTRYLDTLMRGYAERPALAHRVGAGYETISYGELWARVGAIAAAWQADGLAPGDFVATVGFTSPDYVAVDLAAARSGLVSVPLQAGASLAQLVGILEETEPKVLAASASSLEGAVACALAAPSVQRLVVFDLRGPDASESAADERRGALADAEEQLARAGRAVVVETLADLAARGEALPEAPLFEPAEGEDPLALLIYTSGSTGAPKGAMYSQRLVSQLWGRTPVVPGMPNISLHYMPLSHSYGRAVLAGALSAGGTAHFTANSDLSTLFEDIALARPTFLALVPRVCEMLFQESQRGQDVAELRERVLGGRLLVAVCGSAPLSPEMRAFMEEVLGFPLLDGYGSTEALGVMRNGIIQRPPVIDYKLVDVPELGYRTTDKPYPRGELCIRSTSLISGYYKRPEITAEVFDAQGYYKTGDVMAEIAPDHLVYVDRSKNVLKLSQGEFVAVAKLEAAYGTSPYVKQIFVYGNSERSFLLAVVVPNAEVLGARDQEEAKPLIAASLQKIAKEAGLQSYEVPRDFLIETEPFTTQNGLLSEVGKLLRPKLKARYGEALEARYDEIAHGQADELRALRDGAGQRPVVETVVRAAVAISGSEGAEVGPEANFADLGGDSLSALSLANLLHDVFEVEVPVRIIIGPTASLAGIAKHIEAERAGASAPTAASVHGAGATRIRASELTLEKFLPEDLLAAAKGLPAADQVRTVLLTGANGWLGRFLALEQLERLARSGQDGGKLICLVRGKDAAAARRRIEETLGTDPALAARFAELAEGRLEVVPGDVGEPKFGLDDAAWDRLAEEVDVIVHPAALVNHVLPYHQLFGPNVVGTAEIIRLAITAKRKPVTYLSTVAVAAGVEPSSFEEDGDIRAVVPERPLGDGYANGYGNSKWAGEVLLREAHELVGLPVAVFRSDMILAHTRYTGQLNVPDQFTRLVLSLLATGIAPKSFYQQGAAGERQRAHYDGIPVDFTAEAITTLGAEPSWFDGGAGFRSFDVFNPHHDGVGLDEFVDWLIEAGHPISRIDDHKEWFARFETAVRGLPEAQRQHSLLPLLRAYSFPHPPVDGSVYPTGKFQGAVKAAQVGSDHDVPHLGKALIVKYADDLKALGLL
- carboxylate reductase activity: acceptance of adipate as substrate (consumption of NADPH, absorbance at 340 nm) [3]: accepted adipate as substrate

- ω-transaminase activity: acceptance of 6-aminohexanoate as substrate (formation of L-alanine from pyruvate, RP-HPLC) [1]: accepted 6-aminohexanote as substrate
B2: SEQ ID NO 9: Pseudomonas syringae ω-transaminase (Genbank Accession No. AAY39893.1) (protein, listed as Pseudomonas syringae)
chain: MSANNPQTLEWQALSSEHHLAPFSDYKQLKEKGPRIITRAEGVYLWDSEGNKILDGMSGLWCVAIGYGREELADAASKQMRELPYYNLFFQTAHPPVLELAKAISDIAPEGMNHVFFTGSGSEGNDTMLRMVRHYWALKGQPNKKTIISRVNGYHGSTVAGASLGGMTYMHEQGDLPIPGVVHIPQPYWFGEGGDMTPDEFGIWAAEQLEKKILELGVENVGAFIAEPIQGAGGVIVPPDSYWPKIKEILSRYDILFAADEVICGFGRTSEWFGSDFYGLRPDMMTIAKGLTSGYVPMGGLIVRDEIVAVLNEGGDFNHGFTYSGHPVAAAVALENIRILREEKIVERVRSETAPYLQKRLRELSDHPLVGEVRGVGLLGAIELVKDKTTRERYTDKGAGMICRTFCFDNGLIMRAVGDTMIIAPPLVISFAQIDELVEKARTCLDLTLAVLQG
- ω-transaminase activity: acceptance of adipate semialdehyde as substrate (formation of pyruvate, RP-HPLC) [2]: accepted adipate semialdehyde as substrate

- ω-transaminase activity: acceptance of 6-aminohexanoate as substrate (formation of L-alanine from pyruvate, RP-HPLC) [1]: accepted 6-aminohexanote as substrate
B3: SEQ ID NO 7: Chromobacterium violaceum ω-transaminase (Genbank Accession No. AAQ59697.1) (protein, listed as Chromobacterium violaceum)
chain: MQKQRTTSQWRELDAAHHLHPFTDTASLNQAGARVMTRGEGVYLWDSEGNKIIDGMAGLWCVNVGYGRKDFAEAARRQMEELPFYNTFFKTTHPAVVELSSLLAEVTPAGFDRVFYTNSGSESVDTMIRMVRRYWDVQGKPEKKTLIGRWNGYHGSTIGGASLGGMKYMHEQGDLPIPGMAHIEQPWWYKHGKDMTPDEFGVVAARWLEEKILEIGADKVAAFVGEPIQGAGGVIVPPATYWPEIERICRKYDVLLVADEVICGFGRTGEWFGHQHFGFQPDLFTAAKGLSSGYLPIGAVFVGKRVAEGLIAGGDFNHGFTYSGHPVCAAVAHANVAALRDEGIVQRVKDDIGPYMQKRWRETFSRFEHVDDVRGVGMVQAFTLVKNKAKRELFPDFGEIGTLCRDIFFRNNLIMRACGDHIVSAPPLVMTRAEVDEMLAVAERCLEEFEQTLKARGLA
- ω-transaminase activity: acceptance of adipate semialdehyde as substrate (formation of pyruvate, RP-HPLC) [2]: accepted adipate semialdehyde as substrate

B4: SEQ ID NO 8: Pseudomonas aeruginosa ω-transaminase (Genbank Accession No. AAG08191.1) (protein, listed as Pseudomonas aeruginosa)
chain: MNARLHATSPLGDADLVRADQAHYMHGYHVFDDHRVNGSLNIAAGDGAYIYDTAGNRYLDAVGGMWCTNIGLGREEMARTVAEQTRLLAYSNPFCDMANPRAIELCRKLAELAPGDLDHVFLTTGGSTAVDTAIRLMHYYQNCRGKRAKKHVITRINAYHGSTFLGMSLGGKSADRPAEFDFLDERIHHLACPYYYRAPEGLGEAEFLDGLVDEFERKILELGADRVGAFISEPVFGSGGVIVPPAGYHRRMWELCQRYDVLYISDEVVTSFGRLGHFFASQAVFGVQPDIILTAKGLTSGYQPLGACIFSRRIWEVIAEPDKGRCFSHGFTYSGHPVACAAALKNIEIIEREGLLAHADEVGRYFEERLQSLRDLPIVGDVRGMRFMACVEFVADKASKALFPESLNIGEWVHLRAQKRGLLVRPIVHLNVMSPPLILTREQVDTVVRVLRESIEETVEDLVRAGHR
- ω-transaminase activity: acceptance of adipate semialdehyde as substrate (formation of pyruvate, RP-HPLC) [2]: accepted adipate semialdehyde as substrate

- ω-transaminase activity: acceptance of 6-aminohexanoate as substrate (formation of L-alanine from pyruvate, RP-HPLC) [1]: accepted 6-aminohexanote as substrate
B5: SEQ ID NO 12: Vibrio Fluvialis ω-transaminase (Genbank Accession No. AEA39183.1) (protein)
chain: MNKPQSWEARAETYSLYGFTDMPSLHQRGTVVVTHGEGPYIVDVNGRRYLDANSGLWNMVAGFDHKGLIDAAKAQYERFPGYHAFFGRMSDQTVMLSEKLVEVSPFDSGRVFYTNSGSEANDTMVKMLWFLHAAEGKPQKRKILTRWNAYHGVTAVSASMTGKPYNSVFGLPLPGFVHLTCPHYWRYGEEGETEEQFVARLARELEETIQREGADTIAGFFAEPVMGAGGVIPPAKGYFQAILPILRKYDIPVISDEVICGFGRTGNTWGCVTYDFTPDAIISSKNLTAGFFPMGAVILGPELSKRLETAIEAIEEFPHGFTASGHPVGCAIALKAIDVVMNEGLAENVRRLAPRFEERLKHIAERPNIGEYRGIGFMWALEAVKDKASKTPFDGNLSVSERIANTCTDLGLICRPLGQSVVLCPPFILTEAQMDEMFDKLEKALDKVFAEVA
modifications: Vibrio Fluvialis
- ω-transaminase activity: acceptance of adipate semialdehyde as substrate (formation of pyruvate, RP-HPLC) [2]: accepted adipate semialdehyde as substrate

Source: US9816117B2, “Methods, reagents and cells for biosynthesizing compounds” (INVISTA North America S.á r.l., priority 2014, dated 2017)
